Test [1] has as its target mouse E372K SH2B3 SH2 domain (residues 324-446) (mouse) (UniProt O09039). The test can be described thus: SPR.
The target of test [2] is mouse WT SH2B3 SH2 domain (residues 324-446) (mouse) (UniProt O09039). The test can be described thus: SPR.

JAK2 pY813 peptide: the IC50 in test [1] was determined as 0.685 µM; in test [2], 0.127 µM.

The values are drawn from paper doi:10.1101/2023.04.27.538529.
